Measurements from patent US20150157741A1 (published 2015).
Ends that are not written are not given here.

Target: T1, Recombinant Human ErbB2/Fc Chimera (produced by R&D Systems) (human, UniProt P04626 23-652)
T1 construct: Bought reagent; Immobilised by amine coupling on a GLM chip, about 3,000 RU; also called HER2; Fc part of the bought chimera not given
Experiment: SPR (ProteOn XPR36), ErbB2/Fc amine-coupled on GLM chip, conjugate injected, 1:1 Langmuir fit
Description: The bonding property of the PEG including the capture molecule to HER2 serving as a target molecule was evaluated by a surface plasmon resonance method (SPR). In SPR, the measurement was performed using Proteon (registered trademark) XPR36 (produced by Bio-Rad Laboratories). Recombinant Human ErbB2/Fc Chimera (produced by R&D Systems) was dissolved into an acetate buffer (pH 5.0), and was immobilized by amine coupling to a carboxyl group on the GLM sensor chip surface. The amount of immobilization was about 3,000 RU (Resonance Unit). Subsequently, the PEG including the capture molecule was diluted to various concentrations with a phosphate buffer (pH 7.4) containing 0.005% of Tween20 and was injected into a flow cell at a flow rate of 50 microliters/min. As for the measurement times, an injection time (bonding) was 120 seconds and an elapsed time after stopping of injection (dissociation) was 120 seconds. In a bonding kinetic analysis experiment, sensor grams were analyzed using 1:1 Langmuir fitting model. The bonding property to HER2 was ensured with respect to every sample. In particular, strong bonding property was ensured with respect to scFv-PEG40, Af-PEG20, and Af-PEG40.

| Kd | Binder |
| --- | --- |
| 2600 nM | MARSGLGGKGSC(PEG ME‑200MA) (also: ICG-Sulfo-OSu conjugated, site not given here, Conjugate with PEG 20k and ICG) [pe-PEG20 (PEG ME-200MA modified with ICG and the HER2-binding peptide of Sequence No. 3)] |
| 3100 nM | MARSGLGGKGSC(PEG ME‑400MA) (also: ICG-Sulfo-OSu conjugated, site not given here, Conjugate with PEG 40k and ICG) [pe-PEG40 (PEG ME-400MA modified with ICG and the HER2-binding peptide of Sequence No. 3)] |
